Assay results reported in patent publication US20260250320A1, “LIPIDATED PEPTIDE INHIBITORS OF INTERLEUKIN-23 RECEPTOR” (Janssen Pharmaceutica NV, priority 2023, published 2026).
*1 amine or outer side, *2 acyl side, *3 side chain or, on linkers, in order; H or OH if unused. Bridges are numbered along the chain shown (N, C = ends). Primed or numbered codes have the meaning given here. Side-chain parts run from the residue outwards. [ ]: non-standard residue; d: D form. The star is where a group is joined. TMAPF = 5-(4-(2-amino-2-carboxyethyl)phenoxy)-N,N,N-trimethylpentan-1-aminium, C[N+](C)(C)CCCCCOc1ccc(C[C@H](N[*:1])C(=O)[*:2])cc1; Biotin = O=C1N[C@H]2[C@H](CS[C@H]2CCCCC(=O)*)N1; Trp(7-Me) = Cc1cccc2c(C[C@H](N)C(=O)O)c[nH]c12; γGlu = O=C(O)[C@H](CCC(=O)[*:2])N[*:1]; 2Nal = N[C@@H](Cc1ccc2ccccc2c1)C(=O)O; AEF = NCCOc1ccc(C[C@H](N)C(=O)O)cc1; 3Pal = N[C@@H](Cc1cccnc1)C(=O)O; NMecPEG3a = not defined here; Pen = CC(C)(S)[C@H](N)C(=O)O; PEG2″ = PEG2 spacer unit; PEG4′ = not defined here; Thp = NC1(C(=O)O)CCOCC1; Sar = CNCC(=O)O

T1: interleukin-23 receptor (IL-23R) (UniProt Q5VWK5 24-629, limits assumed)
T1 sequence (looked up): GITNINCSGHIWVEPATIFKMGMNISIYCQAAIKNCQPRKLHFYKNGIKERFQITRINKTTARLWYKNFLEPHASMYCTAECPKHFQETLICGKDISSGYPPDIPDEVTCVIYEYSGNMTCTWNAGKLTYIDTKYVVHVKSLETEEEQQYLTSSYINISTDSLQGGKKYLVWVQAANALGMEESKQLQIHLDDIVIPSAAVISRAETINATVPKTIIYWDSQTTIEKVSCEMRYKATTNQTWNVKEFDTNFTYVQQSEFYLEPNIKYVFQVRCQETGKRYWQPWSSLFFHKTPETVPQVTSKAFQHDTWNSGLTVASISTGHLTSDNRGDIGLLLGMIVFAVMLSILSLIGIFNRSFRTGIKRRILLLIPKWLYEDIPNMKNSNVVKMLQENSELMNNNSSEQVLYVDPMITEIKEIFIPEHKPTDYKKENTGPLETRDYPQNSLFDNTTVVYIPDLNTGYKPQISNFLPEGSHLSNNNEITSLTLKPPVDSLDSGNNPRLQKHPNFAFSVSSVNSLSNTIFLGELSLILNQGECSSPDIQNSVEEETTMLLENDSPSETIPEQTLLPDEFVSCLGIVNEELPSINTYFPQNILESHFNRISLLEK

B1: SEQ ID NO: 70 (peptide)
peptide: Ac-[dR][Pen]NT[Trp(7-Me)]K(NMecPEG3a)[Pen][AEF][2Nal][Thp]EN[3Pal][Sar]K([PEG2″-PEG2″-C18OH])-NH2
modifications: disulfide 2-7 (inferred); reading uncertain; also: printed as MeCO-r-Pen(3)-N-T-7MeW-K(NMecPEG3a)-Pen(3)-AEF-2Nal-THP-E-N-3Pya-Sar-K(PEG2PEG2C18OH)-CONH2

Each molecule was assayed against interleukin-23 receptor (IL-23R) (UniProt Q5VWK5) (assay: cell-based or functional assay).

EC90, IL23R reporter assay [ng/mL] | Molecule
10 | interleukin-23 (IL-23) (from UniProt Q9NPF7 20-189; P29460 23-328) (ligand)

What follows are molecules tested against T1, interleukin-23 receptor (IL-23R) (assay: cell-based or functional assay).

PBMC pSTAT3 IC50 [nM] | Molecule
< 0.5 | Ac-[dR][Pen]NT[Trp(7-Me)]K(Ac)[Pen][AEF][2Nal][Thp]K([PEG4′-Biotin])N[3Pal][Sar]K([PEG2″-PEG2″-γGlu-C18OH])-NH2 (disulfide 2-7) [SEQ ID NO: 56]
< 0.5 | {HOC18-γGlu-PEG2″-PEG2″}-[dR][Pen]NT[Trp(7-Me)]K(Ac)[Pen][AEF][2Nal][Thp]EN[3Pal][Sar]-NH2 (disulfide 2-7) [SEQ ID NO: 60]
< 0.5 | XNTXXXXXXENXX (HOC18gEPEG2PEG2CO-Pen(3)-N-T-7MeW-K(Ac)-Pen(3)-AEF-2Nal-THP-E-N-3Pya-Sar-CONH2) [SEQ ID NO: 61]
< 0.5 | Ac-K([PEG2″-PEG2″-γGlu-C18OH])[Pen]NT[Trp(7-Me)]K(Ac)[Pen][TMAPF][2Nal][Thp]K(Ac)N[3Pal][Sar]-NH2 (disulfide 2-7 (inferred)) [SEQ ID NO: 62]
< 0.5 | B1
< 0.5 | {Biotin-PEG4′}-[dR][Pen]NT[Trp(7-Me)]K(Ac)[Pen][AEF][2Nal][Thp]EN[3Pal][Sar]K([PEG2″-PEG2″-γGlu-C18OH])-NH2 (disulfide 2-7) [SEQ ID NO: 57]

Biological target: T1, interleukin-23 receptor (IL-23R)
Test: cell-based or functional assay
Remark: another data set of the same source

IC50, IL23R reporter assay [nM] | Molecule
< 50 | Ac-[dR][Pen]NT[Trp(7-Me)]K(Ac)[Pen][AEF][2Nal][Thp]K([PEG4′-Biotin])N[3Pal][Sar]K([PEG2″-PEG2″-γGlu-C18OH])-NH2 (disulfide 2-7) [SEQ ID NO: 56]
< 50 | {HOC18-γGlu-PEG2″-PEG2″}-[dR][Pen]NT[Trp(7-Me)]K(Ac)[Pen][AEF][2Nal][Thp]EN[3Pal][Sar]-NH2 (disulfide 2-7) [SEQ ID NO: 60]
< 50 | XNTXXXXXXENXX (HOC18gEPEG2PEG2CO-Pen(3)-N-T-7MeW-K(Ac)-Pen(3)-AEF-2Nal-THP-E-N-3Pya-Sar-CONH2) [SEQ ID NO: 61]
< 50 | Ac-K([PEG2″-PEG2″-γGlu-C18OH])[Pen]NT[Trp(7-Me)]K(Ac)[Pen][TMAPF][2Nal][Thp]K(Ac)N[3Pal][Sar]-NH2 (disulfide 2-7 (inferred)) [SEQ ID NO: 62]
< 50 | B1
< 50 | {Biotin-PEG4′}-[dR][Pen]NT[Trp(7-Me)]K(Ac)[Pen][AEF][2Nal][Thp]EN[3Pal][Sar]K([PEG2″-PEG2″-γGlu-C18OH])-NH2 (disulfide 2-7) [SEQ ID NO: 57]
